Results from IntAct's records for PubMed 20148946.

B1: Putative E3 ubiquitin-protein ligase UNKL (Homo sapiens), Q9H9P5 (parent)
chain: MPSVSKAAAAALSGSPPQTEKPTHYRYLKEFRTEQCPLFSQHKCAQHRPFTCFHWHFLNQRRRRPLRRRDGTFNYSPDVYCSKYNEATGVCPDGDECPYLHRTTGDTERKYHLRYYKTGTCIHETDARGHCVKNGLHCAFAHGPLDLRPPVCDVRELQAQEALQNGQLGGGEGVPDLQPGVLASQAMIEKILSEDPRWQDANFVLGSYKTEQCPKPPRLCRQGYACPHYHNSRDRRRNPRRFQYRSTPCPSVKHGDEWGEPSRCDGGDGCQYCHSRTEQQFHPESTKCNDMRQTGYCPRGPFCAFAHVEKSLGMVNEWGCHDLHLTSPSSTGSGQPGNAKRRDSPAEGGPRGSEQDSKQNHLAVFAAVHPPAPSVSSSVASSLASSAGSGSSSPTALPAPPARALPLGPASSTVEAVLGSALDLHLSNVNIASLEKDLEEQDGHDLGAAGPRSLAGSAPVAIPGSLPRAPSLHSPSSASTSPLGSLSQPLPGPVGSSAMTPPQQPPPLRSEPGTLGSAASSYSPLGLNGVPGSIWDFVSGSFSPSPSPILSAGPPSSSSASPNGAELARVRRQLDEAKRKIRQWEESWQQVKQVCDAWQREAQEAKERARVADSDRQLALQKKEEVEAQVIFQLRAKQCVACRERAHGAVLRPCQHHILCEPCAATAPECPYCKGQPLQW

Variants of: B1
Settings: with ubi4p_yeast UBI4, P0CG63
Sequence of ubi4p_yeast UBI4, P0CG63 (P0CG63 whole entry): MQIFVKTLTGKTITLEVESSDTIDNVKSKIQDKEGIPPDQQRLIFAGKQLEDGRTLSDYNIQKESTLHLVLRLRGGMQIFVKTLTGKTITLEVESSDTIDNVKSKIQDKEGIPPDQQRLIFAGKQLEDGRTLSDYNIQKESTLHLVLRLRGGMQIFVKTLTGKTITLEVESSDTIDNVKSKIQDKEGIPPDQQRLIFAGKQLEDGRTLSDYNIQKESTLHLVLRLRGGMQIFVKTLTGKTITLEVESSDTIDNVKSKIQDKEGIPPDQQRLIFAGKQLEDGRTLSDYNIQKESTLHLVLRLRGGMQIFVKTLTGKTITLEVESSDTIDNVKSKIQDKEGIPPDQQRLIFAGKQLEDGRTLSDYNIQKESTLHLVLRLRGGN

effect of a mutation on the interaction | Variant
decreasing interaction | C670A
decreasing interaction | C639A
